In the supplement of paper PMC10567573:
± gives the standard deviation.

Assay: protein stability index of a GFP-peptide fusion (GPS, HEK-293T) (PSI 1-6); higher = more stable
Details: c terminus: a fixed tail appended
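Also: 24-mer peptide tiles fused after GFP, lentivirally expressed, FACS-sorted into six equal bins by GFP/DsRed ratio, decoded by Illumina sequencing, PSI is the read-weighted mean bin number.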

Sequence	protein stability index (treatment: DMSO)	protein stability index (treatment: MLN4924 1 uM, 8 h)
DMLIREVVEKRLCMYEHGEDTHQS [RSPH3]	3.7 ± 0.26	3.85 ± 0.28
DNAPVFTLPEYRVSVPENLPVGTQ [PCDHGA10]	4.54 ± 0.17	4.45 ± 0.26
DPHSGHFVALKSVRVPNGGGGGGG [CDK4]	4.01 ± 0.12	3.87 ± 0.33
DQEMARDLVERALYSMECAFHPLF [TCF25]	2.35 ± 0.34	2.09 ± 0.35
DQIEDMFEQGKWDVFSENLLADVK [STX11]	3.75 ± 0.14	3.76 ± 0.3
DQKVIELVKKYGTKQWTLIAKHLK [MYBL2]	2.77 ± 0.91	3.12 ± 0.49
DQLIGQGIIVKDARLNGSVASYIL [TENT5D]	2.3 ± 0.33	2.19 ± 0.45
DRQYDSRGRFGELLLLLPTLQSIT [HNF4A]	2.35 ± 0.47	2.17 ± 0.21
DRSVQRLLATRIAVYLMTFLIVTV [TMEM175]	3.15 ± 0.3	3.31 ± 0.31
DRVVAFMDHIRIFQEQVEKLKALH [NR2F2]	2.28 ± 0.36	2.22 ± 0.36
DSASLPRKPSVPWQRQMDQPQDRN [RASAL3]	4.65 ± 0.22	4.78 ± 0.23
DSEDFPQAAKQIKDGVTMAPAFRL [FSD1]	4.24 ± 0.11	4.33 ± 0.28
DSPENGADSFESSDSLLQSWNSQS [ETS2]	5.11 ± 0.16	5.14 ± 0.15
DSPENMMRHIRFLKNEVERLKKQL [CCDC6]	4.18 ± 0.31	4.45 ± 0.35
DSSLHWSSSYSPETFRQQFRQFGY [ZNF396]	2.66 ± 0.31	2.56 ± 0.15
DTLISQESCEKNDPLSLLDDSKFP [PCDHGA10]	5.05 ± 0.18	4.93 ± 0.2
DYLTVKVWDLNMEARPIETYQVHD [PPP2R2C]	2.69 ± 0.34	2.86 ± 0.16
DYLYTKQLSPNLDLDPLELIALAN [RHOBTB1]	2.31 ± 0.28	2.3 ± 0.33

Sequence	protein stability index (treatment: DMSO)	protein stability index (treatment: MLN4924 1 uM, 8 h)
DYNQAEMKQRDNCKIRIQRQLEIM [STX11]	2.9 ± 0.19	3.15 ± 0.31
EAASFLQILPVLDFCKVFLISGVT [KLHL13]	3.43 ± 0.78	2.96 ± 0.13
EAIQPYRDRLRSRLEALSTERDEI [TRIM15]	4.61 ± 0.12	4.52 ± 0.14
EARARARANRGILQQERQRLGQRQ [DNAJC4]	4.74 ± 0.28	4.65 ± 0.14
EARFIRRSCTPNAEVRHEIQDGTI [KMT2E]	4.34 ± 0.67	4.27 ± 0.11
EDIDTSMYDNELWAPASEGLKPGP [SERTAD1]	4.84 ± 0.19	4.76 ± 0.17
EECIPEHMVRESKIMEAESQKATR [FAN1]	5.12 ± 0.77	4.72 ± 1.2
EEDRPLGGGEGHQPAGNRRGQARR [BEX3]	5.72 ± 0.14	5.563 ± 0.048
EEEDREEEDENGLPRRRGLRKKKT [NEUROD6]	5.53 ± 0.59	5.52 ± 0.37
EEEEEATNTHPPASLPSQKYPGPQ [CHGA]	5.61 ± 0.16	5.54 ± 0.17
EELQNKILTATVDNANILLQIDNA [KRT17]	4.03 ± 0.095	4.3 ± 0.053
EEPAEKEDLLQQMLERRYTPYPNL [CLCN6]	4.4 ± 0.19	4.44 ± 0.37
EESFRQMVVIHKEIPTGKKDHECS [ZNF232]	4.84 ± 0.31	4.77 ± 0.11
EEVSEVESFILDQDDLENPMLETA [ANKRD17]	5.69 ± 0.23	5.16 ± 0.57
EFDDGSGSVLRIQPLRTPRDEAIY [PTPRD]	3.47 ± 0.11	3.88 ± 0.54
EFTIRDLQRLGELQSELAGVADFS [INTS4]	3.3 ± 0.17	3.42 ± 0.48
EFVNGWYILLVTSDVLTISGTIMK [MCOLN1]	3.06 ± 0.26	3.08 ± 0.33
EGKSRHVDFQCVKSKSITNLAAAA [BTBD10]	3.48 ± 0.43	3.9 ± 0.28
